Measurements reported in patent US20150299268A1 (UNIVERSITY OF MARYLAND BALTIMORE, published 2015).

What was measured:
Assay in all cases: capture ELISA
BaL-gp120-R476A = target: T1, BaL-gp120-R476A (HIV-1 BaL)
T1 construct: domain: gp120

BaL-gp120-D57A = target: T2, BaL-gp120-D57A (HIV-1 BaL)
T2 construct: domain: gp120

BaL-gp120-Y39A = target: T3, BaL-gp120-Y39A (HIV-1 BaL)
T3 construct: domain: gp120

BaL-gp120-H105A = target: T4, BaL-gp120-H105A (HIV-1 BaL)
T4 construct: domain: gp120

BaL-gp120-G495A = target: T5, BaL-gp120-G495A (HIV-1 BaL)
T5 construct: domain: gp120

BaL-gp120-Y61A = target: T6, BaL-gp120-Y61A (HIV-1 BaL)
T6 construct: domain: gp120

BaL-gp120-V68A = target: T7, BaL-gp120-V68A (HIV-1 BaL)
T7 construct: domain: gp120

BaL-gp120-Y40A = target: T8, BaL-gp120-Y40A (HIV-1 BaL)
T8 construct: domain: gp120

BaL-gp120-F53A = target: T9, BaL-gp120-F53A (HIV-1 BaL)
T9 construct: domain: gp120

BaL-gp120-W45A = target: T10, BaL-gp120-W45A (HIV-1 BaL)
T10 construct: domain: gp120

BaL-gp120-P498A = target: T11, BaL-gp120-P498A (HIV-1 BaL)
T11 construct: domain: gp120

BaL-gp120-E492A = target: T12, BaL-gp120-E492A (HIV-1 BaL)
T12 construct: domain: gp120

BaL-gp120-R476AR480A = target: T13, BaL-gp120-R476AR480A (HIV-1 BaL)
T13 construct: domain: gp120

BaL-gp120-P493A = target: T14, BaL-gp120-P493A (HIV-1 BaL)
T14 construct: domain: gp120

BaL-gp120-T455A = target: T15, BaL-gp120-T455A (HIV-1 BaL)
T15 construct: domain: gp120

BaL-gp120-D368R = target: T16, BaL-gp120-D368R (HIV-1 BaL)
T16 construct: domain: gp120

BaL-gp120-I491A = target: T17, BaL-gp120-I491A (HIV-1 BaL)
T17 construct: domain: gp120

BaL-gp120-T162A = target: T18, BaL-gp120-T162A (HIV-1 BaL)
T18 construct: domain: gp120; glycan mutant

BaL-gp120-S200A = target: T19, BaL-gp120-S200A (HIV-1 BaL)
T19 construct: domain: gp120; also called 5200A

BaL-gp120-L494A = target: T20, BaL-gp120-L494A (HIV-1 BaL)
T20 construct: domain: gp120

BaL-gp120-E31A = target: T21, BaL-gp120-E31A (HIV-1 BaL)
T21 construct: domain: gp120

BaL-gp120-E47AE91A = target: T22, BaL-gp120-E47AE91A (HIV-1 BaL)
T22 construct: domain: gp120

BaL-gp120-E47A = target: T23, BaL-gp120-E47A (HIV-1 BaL)
T23 construct: domain: gp120

B1: N60-B1.1 (antibody, V domains shown)
VH: QLQLQESGPGLVKPSGTLSLTCSVSGGSMNGRNIYWAWIRQTPGKGLEWIGSVDVSDEDAGRTFYKWPIKSRASISADTSKNQFSLKLSSVTVADTGVYYCARETLYYVGNGYYYPLDVFYYNYYMDVWGKGTTVSVSS
VL: not shown
notes: also called bnAb N60-B1.1
- % Binding (BaL-gp120-R476A): 57%
- % Binding (BaL-gp120-D57A): 98%
- % Binding (BaL-gp120-Y39A): 121%
- % Binding (BaL-gp120-H105A): 88%
- % Binding (BaL-gp120-G495A): 106%
- % Binding (BaL-gp120-Y61A): 92%
- % Binding (BaL-gp120-V68A): 68%
- % Binding (BaL-gp120-Y40A): 139%
- % Binding (BaL-gp120-F53A): 90%
- % Binding (BaL-gp120-W45A): 84%
- % Binding (BaL-gp120-P498A): 101%
- % Binding (BaL-gp120-E492A): 113%
- % Binding (BaL-gp120-R476AR480A): 5%
- % Binding (BaL-gp120-P493A): 92%
- % Binding (BaL-gp120-T455A): 73%
- % Binding (BaL-gp120-D368R): 99%
- % Binding (BaL-gp120-I491A): 85%
- % Binding (BaL-gp120-T162A): 100%
- % Binding (BaL-gp120-S200A): 22%
- % Binding (BaL-gp120-L494A): 99%
- % Binding (BaL-gp120-E31A): 103%
- % Binding (BaL-gp120-E47AE91A): 73%
- % Binding (BaL-gp120-E47A): 78%
